The record followed here is patent US20180148504A1.

For assay [1], the target named is recombinant purified FRα (ECL assay calibrator) (human) (UniProt P15328). Nature of the assay: ECL sandwich competition; competitors 9F3 capture / 24F12 detection; FRα standard STD05; MORAb-003 10 µg/mL.
The target in assay [2] is endogenous folate receptor alpha in human serum and plasma samples (human) (UniProt P15328). Nature of the assay: ECL sandwich capture 19D4.B7 / detection 19D2.G9; serum incubated overnight with 10 µg/mL MORAb-003.
The target is the same in assay [3]. The experiment in a line: ECL sandwich capture 19D4.B7 / detection 26A9.C4; serum incubated overnight with 10 µg/mL MORAb-003.
Assay [4] has the same target. The experiment in a line: ECL sandwich capture 19D4.B7 / detection 2F11.F8; serum incubated overnight with 10 µg/mL MORAb-003.
Assay [5] shares this target. Nature of the assay: ECL sandwich capture 28H12.G9 / detection 19D4.B7; serum incubated overnight with 10 µg/mL MORAb-003.
For assay [6], the target named is recombinant purified FRα (ECL assay calibrator) (human) (UniProt P15328). Nature of the assay: ECL sandwich capture 6A2.G7 / detection 24H8.D3; calibrator incubated overnight with 10 µg/mL MORAb-003.
Assay [7] concerns the target endogenous folate receptor alpha in human serum and plasma samples (human) (UniProt P15328). The experiment in a line: ECL sandwich capture 1C6.E12.G8 / detection 19D4.B7; serum incubated overnight with 10 µg/mL MORAb-003.
The target in assay [8] is recombinant purified FRα (ECL assay calibrator) (human) (UniProt P15328). The experiment in a line: ECL sandwich capture 19D4.B7 / detection 6A2.G7; calibrator incubated overnight with 10 µg/mL MORAb-003.
Assay [9] has as its target endogenous folate receptor alpha in human serum and plasma samples (human) (UniProt P15328). The experiment in a line: ECL sandwich competition; competitors 24H8.D3 capture / 19D4.B7 detection; serum of sample #DLSO-015; MORAb-003 100 µg/mL.
The target in assay [10] is recombinant purified FRα (ECL assay calibrator) (human) (UniProt P15328). Nature of the assay: ECL sandwich capture 19D4.B7 / detection 24H8.D3; calibrator incubated overnight with 10 µg/mL MORAb-003.
The target is the same in assay [11]. Nature of the assay: ECL sandwich capture 19D4.B7 / detection 24H8.F3; calibrator incubated overnight with 10 µg/mL MORAb-003.
Assay [12] has the same target. The experiment in a line: ECL sandwich capture 19D4.B7 / detection 26A9.C4; calibrator incubated overnight with 10 µg/mL MORAb-003.
Assay [13] deals with endogenous folate receptor alpha in human serum and plasma samples (human) (UniProt P15328). Nature of the assay: ECL sandwich competition; competitors 24H8.D3 capture / 19D4.B7 detection; plasma of sample #DLSO-015; MORAb-003 100 µg/mL.
Assay [14] concerns the target recombinant purified FRα (ECL assay calibrator) (human) (UniProt P15328). The experiment in a line: ECL sandwich capture 6A2.G7 / detection 1C6.E12.G8; calibrator incubated overnight with 10 µg/mL MORAb-003.
Assay [15] has the same target. The experiment in a line: ECL sandwich capture 19D4.B7 / detection 1A8.G11.E7; calibrator incubated overnight with 10 µg/mL MORAb-003.
Assay [16] shares this target. Nature of the assay: ECL sandwich capture 24H8.F3 / detection 30G6.G6.G4.E9; calibrator incubated overnight with 10 µg/mL MORAb-003.
Assay [17] shares this target. The experiment in a line: ECL sandwich capture 26A9.C4 / detection 30G6.G6.G4.E9; calibrator incubated overnight with 10 µg/mL MORAb-003.
For assay [18] the target is unchanged. Nature of the assay: ECL sandwich capture 30G6.G6.G4.E9 / detection 19D2.G9; calibrator incubated overnight with 10 µg/mL MORAb-003.
The target is the same in assay [19]. Nature of the assay: ECL sandwich capture 1C6.E12.G8 / detection 30G6.G6.G4.E9; calibrator incubated overnight with 10 µg/mL MORAb-003.
The target is the same in assay [20]. The experiment in a line: ECL sandwich capture 1D2.G8.G10 / detection 30G6.G6.G4.E9; calibrator incubated overnight with 10 µg/mL MORAb-003.
Assay [21] addresses endogenous folate receptor alpha in human serum and plasma samples (human) (UniProt P15328). The experiment in a line: ECL sandwich, positive control +CONT: capture 26B3.F2 (f1) / detection 19D4.B7; serum incubated overnight with 10 µg/mL MORAb-003.
Assay [22] addresses recombinant purified FRα (ECL assay calibrator) (human) (UniProt P15328). Nature of the assay: ECL sandwich, positive control +CONT: capture 26B3.F2 (f1) / detection 19D4.B7; calibrator incubated overnight with 10 µg/mL MORAb-003.

endogenous folate receptor alpha in human serum and plasma samples (human), sequence (P15328 25-234 limits assumed, form in doubt): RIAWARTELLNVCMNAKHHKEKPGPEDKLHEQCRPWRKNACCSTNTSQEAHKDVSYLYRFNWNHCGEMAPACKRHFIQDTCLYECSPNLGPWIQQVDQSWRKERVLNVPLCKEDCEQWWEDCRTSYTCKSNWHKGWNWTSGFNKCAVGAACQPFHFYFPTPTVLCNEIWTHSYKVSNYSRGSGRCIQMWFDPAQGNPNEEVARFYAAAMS
recombinant purified FRα (ECL assay calibrator) (human), sequence (P15328 25-234 limits assumed): as the sequence (P15328 25-234 limits assumed, form in doubt) above

B1: farletuzumab (MORAb-003) (antibody, part only; not given: Constant regions, V domains shown, not shown: another chain or arm of the molecule)
VH: EVQLVESGGGVVQPGRSLRLSCSASGFTFSGYGLSWVRQAPGKGLEWVAMISSGGSYTYYADSVKGRFAISRDNAKNTLFLQMDSLRPEDTGVYFCARHGDDPAWFAYWGQGTPVTVSS
VL: DIQLTQSPSSLSASVGDRVTITCSVSSSISSNNLHWYQQKPGKAPKPWIYGTSNLASGVPSRFSGSGSGTDYTFTISSLQPEDIATYYCQQWSSYPYMYTFGQGTKVEIK
As for B1, the % of signal without MORAb-003 (MORAb-003 interference) in assay [1] is 71%. Besides, the Drug suppression of serum in [2] is -3.38%; in [3], -3.77%; in [4], 0.82%; in [5] it was -73.2%; in assay [7], -52%; in assay [21] it was 12.1%. Further, the Drug Suppression of Cal Signal at 500 pg/mL in assay [6] is -9%; in assay [8] it was -9%; in [10], -6%; in assay [11], -14%; in assay [12] it was -14%; in [14] it was 6%. Moreover, the Drug Suppression of Cal Signal at 500 pg/mL in [15] is -2%; in [16], -6%; in assay [17] it was -28%; in [18], -5%; in assay [19], -9%; in assay [20], -11%. Moreover, the Drug Suppression of Cal Signal at 500 pg/mL in assay [22] was -5%. In [9], the percent inhibition (sample #DLSO-015, serum) turned out to be 21%. The molecule also showed a percent inhibition (sample #DLSO-015, plasma) in assay [13] of 10%.
